Results from patent publication US20230126400A1 (Alector, published 2023).

T1: BSA-conjugated human MS4A4A ECL2 peptide (amino acid residues 159-179) (human, conjugated to BSA (site not stated))
T1 construct: also called MS4A4A-ECL2 BSA conjugated peptide; BSA-MS4A4A-ELC2 peptide
T1 peptide: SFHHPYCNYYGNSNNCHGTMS

T2: human MS4A6A ECL2 peptide (amino acid residues 138-185) (human)
T2 peptide: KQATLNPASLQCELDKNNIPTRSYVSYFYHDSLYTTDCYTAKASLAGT

T3: human MS4A6A ECL1 peptide (amino acid residues 68-85) (human)
T3 peptide: SASFSPNFTQVTSTLLNS

T4: human MS4A4A ECL1 peptide (amino acid residues 86-98) (human)
T4 construct: synthetic peptide
T4 peptide: CMASNTYGSNPIS


Key:
[1] = molecular target: T1, BSA-conjugated human MS4A4A ECL2 …; assay: ELISA, supernatant
Method: (§1) Briefly, 96-well polystyrene plates were coated with 1-10 μg/ml of synthetic free or BSA-conjugated peptides in coating buffer (0.05M carbonate buffer, pH9.6, Millipore Sigma C3041) overnight at 4° C. Coated plates were then blocked with ELISA diluent (PBS+0.5% BSA+0.05% Tween20) for 1-hour, washed 3×300 μL in PBST (PBS+0.05% Tween20, Thermo Cat#28352), and then the antibodies were added to the plate ([…]). After 30 mins incubation (room temperature, with shaking), the plates were washed 3×300 μL in PBST. […] After a final set of washes (3×300 μL in PBST), 50 μL of TMB substrate (BioFx TMBW-1000-01) was added and the reaction was then quenched after 5-10 mins with 50 μL of stop solution (BioFx BSTP-1000-01). The quenched reaction wells were detected for absorbance at 650 nm with a BioTek Synergy Microplate Reader using GENS 2.04 software.

human MS4A4A = human MS4A4A (human, UniProt Q96JQ5 1-239); assay: FACS, HEK293, supernatant
Method: (§2) Positive clones identified above were expanded and then rescreened for specificity against HEK293 cells overexpressing human MS4A4A or cyno MS4A4A and parental HEK293 cells. These experiments were performed using supernatants from hybridoma clones which had undergone further expansion after initial selection. Briefly, previously prepared, cryopreserved transiently-transfected cells were labeled with LIVE/DEAD Fixable Aqua Dead Cell Stain Kit (ThermoFisher Scientific L34957) on ice for 30 minutes. After a wash with PBS, 2×10⁵ cells were aliquoted per well in 96-well U-bottom plates and incubated with 50 μl of culture supernatant on ice for 30 minutes. […] Following this secondary incubation, the cells were again washed twice with ice-cold FACS buffer and resuspended in a final volume of 200 μl of FACS buffer. Analysis was performed on a FACS Canto system (BD Biosciences), with sort gates drawn to exclude dead (Aqua-positive) cells. Positive clones (fold change of 1.8 or greater) were carried forward for further testing.

cynomolgus (cyno) MS4A4A = molecular target: T5, cynomolgus (cyno) MS4A4A (cynomolgus); assay: FACS, HEK293, supernatant
T5 construct: also called cy4A; Cyno 4A
Method: as §2

[2] = molecular target: T2, human MS4A6A ECL2 peptide (amino acid …); assay: array SPR
Method: (§3) Binding kinetic characterization of the anti-MS4A4A antibodies to MS4A4A ECL1 and ECL2 and to MS4A6A ECL1 and ECL2 peptides was performed by Carterra (South San Francisco, Calif.) using a proprietary array Surface Plasmon Resonance (SPR) instrument (MX-96) as follows. Antibodies were captured onto a CMD500D chip (Xantec # SPMX CMD500D) using the Continous Flow Microspotter (CFM). First, the chip was activated with 100 mM MES pH 5.5, 100 μL EDC (133 mM final), 100 μL of S-NHS (33.3 mM final), for 7 minutes. […] Anti-MS4A4A hydridoma supernatant or purified anti-MS4A4A antibodies were diluted in HBS-EP+ buffer (Teknova Cat # H8022) and then printed as duplicates with a 20 minute and a 5-minute print from the same sample solution.
(§4) These were then injected on the chip for five minutes, followed by a seven-minute dissociation period at 8 uL per second in a non-regenerative kinetic series. Duplicate measurements for each anti-MS4A4A antibody were taken to ensure reproducibility. Association rates (Kon) and dissociation rates (Koff) were calculated using a single one-to-one Langmuir binding model. The equilibrium dissociation constant (KD) was calculated as the ration of Koff/Kon.

[3] = molecular target: T3, human MS4A6A ECL1 peptide (amino acid …); assay: array SPR
Method: as §3, §4

[4] = molecular target: T4, human MS4A4A ECL1 peptide (amino acid …); assay: ELISA, hybridoma supernatant
Method: as §1

binding result [1]	Human 4A:parental cell ratio (human MS4A4A) [ratio]	Cyno 4A:parental cell ratio (cynomolgus (cyno) MS4A4A) [ratio]	binding result [2]	binding result [3]	binding result [4]	Binder
binds	1.86	1.51	no binding (tested: 2000 nM)	no binding (tested: 2000 nM)	no binding	anti-MS4A4A antibody 4A-19 (antibody, V domains shown, murine hybridoma antibody) VH: QVQLQQSGAELARPGASVKLSCKASGYSFIDYGISWVKQRTGQGLEWIGEIYPRSGNTYYNEKFKGKATLTADKSSSTAYMELRSLTSEDSAVYFCARKGLLRDFDYWGQGTTLTVSS VL: not shown
binds	9.12	2.11	no binding (tested: 2000 nM)	no binding (tested: 2000 nM)	no binding	anti-MS4A4A antibody 4A-11 (antibody, V domains shown, murine hybridoma antibody) VH: EVKLEESGGGLVQPGGSMKLSCAASGFTFSDAWMDWVRQSPEKGLEWVAEIRSKTDNHATYFAESVKGRFTISRDDSKSSVYLQMNSLRAGDTGIYYCYGSTFASWGQGTLVTVSS VL: not shown
binds	4.78	2	no binding (tested: 2000 nM)	no binding (tested: 2000 nM)	no binding	anti-MS4A4A antibody 4A-4 (antibody, V domains shown, murine hybridoma antibody) VH: EIQLQQTGPDLVKPGTSVKISCKASGYSFTDYVLVWVKQSHGKSLEWIGNINPYYGNSDYNLKFEGKARLTVDRSSSTAYMQLNSLTSEDSAVYYCARYGLYAMDFWGQGTSVTVSS VL: DVLMTQTPLSLPVSLGDQASISCRSSQTIVHSNGNSYLEWYLQKPGQSPKLLIYKVSNRFSGVPDRFSGSGSGTVFTLKISRVEAEDLGVYFCFQSSHVPLTFGVGTKLELK
binds	7.97	3.98	no binding (tested: 2000 nM)	no binding (tested: 2000 nM)	no binding	anti-MS4A4A antibody 4A-7 (antibody, V domains shown, murine hybridoma antibody) VH: EIQLQQTGPELVKPGASVKISCKASGYSFTDYVMIWVKQSHGKSLEWIGNINPYYGSTSYNLKFKGKATLTVDKSSSTAYMQLKSLTSEDSAVYYCARYGYDALDNWGQGTSVTVSS VL: DVLLTQTPLSLPVSLGDQASISCRSSQSIVHSNGNTYLDWSLQKPGQSPKLLIYRVSNRFSGVPDRFSGSGSGTDFTLKISRVEAEDLGVYYCFQGSHVPLTFGAGTKLELK
binds	5.7	3.3	no binding (tested: 2000 nM)	no binding (tested: 2000 nM)	no binding	anti-MS4A4A antibody 4A-8 (antibody, V domains shown, murine hybridoma antibody) VH: EVKLVESGGGLVQPGGSLKLSCATSGFTFSDYYMYWVRQTPEKRLEWVAYINNGGGSTYYPDTVKGRFTISRDNAKNTLYLQMSRLKSEDTAMYYCARQGNLIYYSGSSLFAYWGQGTMVTVSS VL: DVLMTQTPLSLPVSLGDQASISCRSSQSIVHSNRNTYLEWYVQKPGQSPKLLIYKVSNRFSGVPDRFSGSGSGTDFTLKISRVEAEDLGVYYCFQGSHVPWTFGGGTKLEIK
binds	8.13	4.67	no binding (tested: 2000 nM)	no binding (tested: 2000 nM)	no binding	anti-MS4A4A antibody 4A-15 (antibody, V domains shown, murine hybridoma antibody) VH: EIQLQQTGPDLVKPGASVKISCKASGYSFTDYVILWVKQSHGKTLEWIGHINPYYANSDYNVNFRGKATLTVDKSSSTAHMQLNSLTSEDSAVYYCVRYGSGMDYWGQGTSVTVSS VL: DVLMTQTPLSLPVSLGDQASISCRSSQSIVHSDGNTYLEWYLQKPGQSPKLLIYKVSNRFSGVPDRFSGSGSGTDFTLKISRVEAEDLGVYYCFQGSHFPLTFGAGTKLELK
binds	–	–	no binding (tested: 2000 nM)	no binding (tested: 2000 nM)	no binding	anti-MS4A4A antibody 4A-20 (antibody, V domains shown, murine hybridoma antibody) VH: EVQLQQSGPELVKPGASVKIPCKASGYTFTDYNMDWVKQSHGKSLDWIGDINPNNGYTIYNQKFKGKATLTVDKSSSTAYMELRRLTSEDTAVYYCARSTGPYFDYWGQGTTLTVSS VL: DIQMTQSPASLSASVGETVTITCRASENIYSYLAWYQQKQGKSPQFLVYNGKTLAEGVPSRFSGCGSGTQFSLKINSLQPEDFGSYYCQHHYGIPRTFGGGTKLEIK

Further lines, the binder ahead of its results:

Binder	binding result [1]	Human 4A:parental cell ratio (human MS4A4A) [ratio]	Cyno 4A:parental cell ratio (cynomolgus (cyno) MS4A4A) [ratio]	binding result [2]	binding result [3]	binding result [4]
anti-MS4A4A antibody 4A-9 (antibody, V domains shown, murine hybridoma antibody) VH: DVQLQESGPGLVKPSQSLSLTCSVTGYSITSGYYWNWIRQFPGNKLEWMGYISYDGNNKYNPSLKNRISITRDTSKNQFFLKLNSVTTEDTATYYCANRDYWGQGTTLTVSS VL: DVLMTQTPLSLPVSLGDQASISCRSSQNIVHSNGITYLEWFLQKPGQSPTLLIYKISNRFSGVPDRFSGSGSGTDFTLKISRVEAEDLGVYYCFQGSHVPYTFGGGTKLDIK	binds	8.2	3.46	no binding (tested: 2000 nM)	no binding (tested: 2000 nM)	no binding
anti-MS4A4A antibody 4A-10 (antibody, V domains shown, murine hybridoma antibody) VH: EVKLEESGGGLVQPGGSMKLSCAASGFTFSDAWMDWVRQSPEKGLEWVAEIRSKANDHATYYAESVKGRFTISRDDSKSSVYLQMNSLRAEDTGIYYCSVDYYGFFWGQGTLVTVSA VL: not shown	–	6.55	2.33	no binding (tested: 2000 nM)	no binding (tested: 2000 nM)	no binding
anti-MS4A4A antibody 4A-13 (antibody, V domains shown, murine hybridoma antibody; same VH and VL entries as 4A-10) VH: EVKLEESGGGLVQPGGSMKLSCAASGFTFSDAWMDWVRQSPEKGLEWVAEIRSKANDHATYYAESVKGRFTISRDDSKSSVYLQMNSLRAEDTGIYYCSVDYYGFFWGQGTLVTVSA VL: not shown	–	43.8	9.94	no binding (tested: 2000 nM)	no binding (tested: 2000 nM)	no binding
anti-MS4A4A antibody 4A-16 (antibody, V domains shown, murine hybridoma antibody) VH: EVKLEESGGGLVQPGGSMKLSCAASGFTFSDAWMDWVRQSPEKGLEWVAEIRSKANDHATYYAESVKGRFTISRDDSKSSVYLQMNSLRAEDTGIYYCSVDYYGFFWGQGTMVTVSA VL: not shown	binds	5.93	2.65	no binding (tested: 2000 nM)	no binding (tested: 2000 nM)	no binding
anti-MS4A4A antibody 4A-3 (antibody, V domains shown, murine hybridoma antibody) VH: QIQLVQSGPELKTPGETVKISCKSSGYTFTKYGMNWVKQAPGKGLKWMAWINTYTAEPTYGDDFKGRFALSLETSANTAYLQINNLKNEDTATYFCARSAELVRHYYALDYWGQGTSVTVSS VL: DVLMTQTPLSLPVSLGDQASISCRSSQSLVHSNGNIYLEWFLQKPGQSLKILIYKVSNRFSGVPDRFSGSGSGTDFTLKISRVEADDLGVYYCSQGSHVPPTFGAGTKLELR	binds	7.31	2.58	no binding (tested: 2000 nM)	no binding (tested: 2000 nM)	no binding
